Numbered stars: 1 amine (or outer) side, 2 acyl side, 3 side chain; on linkers, the order of the positions; unused ones are H or OH. Bridge positions count the residues as written; N and C are the ends. Square brackets hold non-standard residues; d marks the D form. Side chains are listed from the residue outwards. Ends that are not written are not given here. * marks the point of attachment. C20 diacid = O=C(O)CCCCCCCCCCCCCCCCCCC(=O)*; γGlu = O=C(O)[C@H](CCC(=O)[*:2])N[*:1]; AEEA = NCCOCCOCC(=O)O

The values below come from patent US20140087995A1 (published 2014).

In assay [1] the target is T1, human calcitonin receptor (human, UniProt P30988 25-474).
T1 construct: whole, on cells; Assay used cell membranes, not intact cells; also called hCTR; hCT
T1 sequence (looked up): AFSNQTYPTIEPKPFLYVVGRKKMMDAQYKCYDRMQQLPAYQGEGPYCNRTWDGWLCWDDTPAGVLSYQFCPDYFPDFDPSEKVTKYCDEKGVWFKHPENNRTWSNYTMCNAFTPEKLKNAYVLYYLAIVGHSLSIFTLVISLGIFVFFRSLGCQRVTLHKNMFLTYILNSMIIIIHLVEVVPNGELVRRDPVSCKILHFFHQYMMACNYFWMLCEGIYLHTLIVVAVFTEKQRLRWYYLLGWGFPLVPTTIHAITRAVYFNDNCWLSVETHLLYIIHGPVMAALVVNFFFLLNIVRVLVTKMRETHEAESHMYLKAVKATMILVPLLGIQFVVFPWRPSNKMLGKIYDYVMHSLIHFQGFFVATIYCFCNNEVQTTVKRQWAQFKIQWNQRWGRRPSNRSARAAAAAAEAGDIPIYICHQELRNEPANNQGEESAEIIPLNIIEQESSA
The assay is described as follows: SPA competition with 125I-calcitonin on membranes of BHK cells with human calcitonin receptor (Assay VII). As for the experimental part: Membranes were prepared in the following way; the cells were rinsed with PBS and incubated with Versene for approximately 5 min before harvesting. The cells were flushed with PBS and the cell-suspension was centrifuged for 5 min at 1000 rpm. Cells were homogenized (Ultrathurrax) in a buffer containing 20 mM Na-HEPES and 10 mM EDTA (pH 7.4) and centrifuged at 20.000 rpm for 15 min. The resulting pellet was resuspended, homogenized and centrifuged (20.000 rpm, 15 min) in a buffer containing 20 mM Na-HEPES and 0.1 mM EDTA (pH 7.4, buffer 2). The resulting pellet was resuspended in buffer 2 and protein concentration was measured (BCA protein Assay, Pierce). The homogenate was kept cold during the whole procedure. The membranes were kept at −80° C. until use. Assay was performed in a 384 well Optiplate (PerkinElmer) in a total volume of 40 ul. Membranes were mixed with SPA beads. Final concentration of membranes 35 ng/μL final and Final concentration of SPA beads was 0.05 mg/well. Test-compounds were dissolved in DMSO and further diluted in assay buffer (50 mM Hepes, pH 7.4, 1 mM CaCl2, 5 mM MgCl₂, 0.1% OA and 0.02% Tween20). […] The final mixture was incubated for 120 min with shaking at 400 rpm at 25° C. prior to centrifugation (1500 rpm, 10 min). Samples were analyzed on TopCounter™ (Packard). The […] was calculated using (one site binding competition analysis) GraphPad Prism5 as a measure of receptor affinity.

Assay [2] has as its target T2, human amylin receptor (amylin 3(a) receptor: human calcitonin receptor with RAMP-3) (human, UniProt P30988 25-474; O60896 24-148).
T2 construct: whole, on cells; Assay used cell membranes of the Amylin 3(a)/CRE-luc BHK cells, not intact cells; also called hAmylin-R; hAmylinR
T2 sequence (looked up) 1: T1 sequence (looked up)
T2 sequence (looked up) 2: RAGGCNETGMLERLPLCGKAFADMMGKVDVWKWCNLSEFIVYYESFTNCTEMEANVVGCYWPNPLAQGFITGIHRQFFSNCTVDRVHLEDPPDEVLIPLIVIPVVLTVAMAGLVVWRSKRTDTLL
The assay is described as follows: SPA competition with 125I-rat amylin on membranes of BHK cells with human calcitonin receptor and RAMP-3 (Assay V). As for the experimental part: The binding assay was performed using scintillation proximity assay (SPA) beads (RPNQ0001) from PerkinElmer and cell membranes from the Amylin 3(a)/CRE-luc cells (as described in Assay (II)) were used. Membranes were prepared in the following way; the cells were rinsed with PBS and incubated with Versene for approximately 5 min before harvesting. The cells were flushed with PBS and the cell-suspension was centrifuged for 5 min at 1000 rpm. Cells were homogenized (ultrathurrax) in a buffer containing 20 mM Na-HEPES and 10 mM EDTA (pH 7.4) and centrifuged at 20.000 rpm for 15 min. The resulting pellet was resuspended, homogenized and centrifuged (20.000 rpm, 15 min) in a buffer containing 20 mM Na-HEPES and 0.1 mM EDTA (pH 7.4, buffer 2). The resulting pellet was resuspended in buffer 2 and protein concentration was measured (BCA protein Assay, Pierce). The homogenate was kept cold during the whole procedure. The membranes were kept at −80° C. until use. The assay was performed in a 384 well Optiplate (PerkinElmer) in a total volume of 40 ul. Membranes were mixed with SPA beads. Final concentration of membranes 35 ng/μL final and SPA beads was 0.05 mg/well. Test-compounds were dissolved in DMSO and further diluted in assay buffer (50 mM Hepes, pH 7.4, 1 mM CaCl2, 5 mM MgCl₂, 0.1% OA and 0.02% Tween20). […] The final mixture was incubated with shaking at 400 rpm for 120 min at 25° C. prior to centrifugation (1500 rpm, 10 min). Samples were analyzed on TopCounter™ (Packard). The IC₅₀ was calculated using (one site binding competition analysis) GraphPad Prism5 as a measure of receptor affinity.

In assay [3] the target is T1, human calcitonin receptor. The assay is described as follows: ratio IC50 hCTR / IC50 hAmylin-R (reference: human amylin receptor), SPA competition assays. On the procedure:
The resulting pellet was resuspended, homogenized and centrifuged (20.000 rpm, 15 min) in a buffer containing 20 mM Na-HEPES and 0.1 mM EDTA (pH 7.4, buffer 2). The resulting pellet was resuspended in buffer 2 and protein concentration was measured (BCA protein Assay, Pierce). The homogenate was kept cold during the whole procedure. The membranes were kept at −80° C. until use. The assay was performed in a 384 well Optiplate (PerkinElmer) in a total volume of 40 ul. Membranes were mixed with SPA beads. Final concentration of membranes 35 ng/μL final and SPA beads was 0.05 mg/well. Test-compounds were dissolved in DMSO and further diluted in assay buffer (50 mM Hepes, pH 7.4, 1 mM CaCl2, 5 mM MgCl₂, 0.1% OA and 0.02% Tween20). […] The final mixture was incubated with shaking at 400 rpm for 120 min at 25° C. prior to centrifugation (1500 rpm, 10 min). Samples were analyzed on TopCounter™ (Packard). The IC₅₀ was calculated using (one site binding competition analysis) GraphPad Prism5 as a measure of receptor affinity.
Membranes were prepared in the following way; the cells were rinsed with PBS and incubated with Versene for approximately 5 min before harvesting. The cells were flushed with PBS and the cell-suspension was centrifuged for 5 min at 1000 rpm. Cells were homogenized (Ultrathurrax) in a buffer containing 20 mM Na-HEPES and 10 mM EDTA (pH 7.4) and centrifuged at 20.000 rpm for 15 min. The resulting pellet was resuspended, homogenized and centrifuged (20.000 rpm, 15 min) in a buffer containing 20 mM Na-HEPES and 0.1 mM EDTA (pH 7.4, buffer 2). The resulting pellet was resuspended in buffer 2 and protein concentration was measured (BCA protein Assay, Pierce). The homogenate was kept cold during the whole procedure. The membranes were kept at −80° C. until use. Assay was performed in a 384 well Optiplate (PerkinElmer) in a total volume of 40 ul. Membranes were mixed with SPA beads.

B1: N^ε1-[2-[2-[2-[[2-[2-[2-[[(4S)-4-carboxy-4-(19-carboxynonadecanoylamino)butanoyl]amino]ethoxy]ethoxy]acetyl]amino]ethoxy]ethoxy]acetyl]-[Arg17,Pro21,Pro27,Pro34 … (peptide)
peptide: K([AEEA-AEEA-γGlu-C20 diacid])CNTATCATQRLANFLRHSSPNFGAIPSSTNVGPNTY-NH2
modifications: disulfide 2-7; N-terminus assumed
SMILES: CC[C@H](C)[C@H](NC(=O)[C@H](C)NC(=O)CNC(=O)[C@H](Cc1ccccc1)NC(=O)[C@H](CC(N)=O)NC(=O)[C@@H]1CCCN1C(=O)[C@H](CO)NC(=O)[C@H](CO)NC(=O)[C@H](Cc1c[nH]cn1)NC(=O)[C@H](CCCNC(=N)N)NC(=O)[C@H](CC(C)C)NC(=O)[C@H](Cc1ccccc1)NC(=O)[C@H](CC(N)=O)NC(=O)[C@H](C)NC(=O)[C@H](CC(C)C)NC(=O)[C@H](CCCNC(=N)N)NC(=O)[C@H](CCC(N)=O)NC(=O)[C@@H](NC(=O)[C@H](C)NC(=O)[C@@H]1CSSC[C@H](NC(=O)[C@@H](N)CCCCNC(=O)COCCOCCNC(=O)COCCOCCNC(=O)CC[C@H](NC(=O)CCCCCCCCCCCCCCCCCCC(=O)O)C(=O)O)C(=O)N[C@@H](CC(N)=O)C(=O)N[C@@H]([C@@H](C)O)C(=O)N[C@@H](C)C(=O)N[C@@H]([C@@H](C)O)C(=O)N1)[C@@H](C)O)C(=O)N1CCC[C@H]1C(=O)N[C@@H](CO)C(=O)N[C@@H](CO)C(=O)N[C@H](C(=O)N[C@@H](CC(N)=O)C(=O)N[C@H](C(=O)NCC(=O)N1CCC[C@H]1C(=O)N[C@@H](CC(N)=O)C(=O)N[C@H](C(=O)N[C@@H](Cc1ccc(O)cc1)C(N)=O)[C@@H](C)O)C(C)C)[C@@H](C)O
notes: also called compound 98
The term IC50 denotes the concentration that gives 50% inhibition. With B1, the concentration for half-maximal inhibition (IC50) came out at 6.74 nM in assay [1] and 0.091 nM in assay [2]. Further, the “Ratio hCT/hAmylin binding” value in assay [3] worked out at 74.1.

B2: N^ε1-[(4S)-4-carboxy-4-[[(4S)-4-carboxy-4-(19-carboxynonadecanoylamino)butanoyl]amino]butanoyl]-[D-Asp14,Arg17,Pro21,Pro27,Arg35]-h-amylin (peptide)
peptide: K([γGlu-γGlu-C20 diacid])CNTATCATQRLA[dD]FLRHSSPNFGAIPSSTNVGSRTY-NH2
modifications: disulfide 2-7; N-terminus assumed
SMILES: CC[C@H](C)[C@H](NC(=O)[C@H](C)NC(=O)CNC(=O)[C@H](Cc1ccccc1)NC(=O)[C@H](CC(N)=O)NC(=O)[C@@H]1CCCN1C(=O)[C@H](CO)NC(=O)[C@H](CO)NC(=O)[C@H](Cc1c[nH]cn1)NC(=O)[C@H](CCCNC(=N)N)NC(=O)[C@H](CC(C)C)NC(=O)[C@H](Cc1ccccc1)NC(=O)[C@@H](CC(=O)O)NC(=O)[C@H](C)NC(=O)[C@H](CC(C)C)NC(=O)[C@H](CCCNC(=N)N)NC(=O)[C@H](CCC(N)=O)NC(=O)[C@@H](NC(=O)[C@H](C)NC(=O)[C@@H]1CSSC[C@H](NC(=O)[C@@H](N)CCCCNC(=O)CC[C@H](NC(=O)CC[C@H](NC(=O)CCCCCCCCCCCCCCCCCCC(=O)O)C(=O)O)C(=O)O)C(=O)N[C@@H](CC(N)=O)C(=O)N[C@@H]([C@@H](C)O)C(=O)N[C@@H](C)C(=O)N[C@@H]([C@@H](C)O)C(=O)N1)[C@@H](C)O)C(=O)N1CCC[C@H]1C(=O)N[C@@H](CO)C(=O)N[C@@H](CO)C(=O)N[C@H](C(=O)N[C@@H](CC(N)=O)C(=O)N[C@H](C(=O)NCC(=O)N[C@@H](CO)C(=O)N[C@@H](CCCNC(=N)N)C(=O)N[C@H](C(=O)N[C@@H](Cc1ccc(O)cc1)C(N)=O)[C@@H](C)O)C(C)C)[C@@H](C)O
Regarding B2, the IC50 in assay [1] is 112 nM; in assay [2], 0.365 nM.

B3: N^ε1-[2-[2-[2-(19-carboxynonadecanoylamino)ethoxy]ethoxy]acetyl]-[Arg17,Pro21,Pro27,His34]-h-amylin (peptide)
peptide: K([AEEA-C20 diacid])CNTATCATQRLANFLRHSSPNFGAIPSSTNVGHNTY-NH2
modifications: disulfide 2-7; N-terminus assumed
SMILES: CC[C@H](C)[C@H](NC(=O)[C@H](C)NC(=O)CNC(=O)[C@H](Cc1ccccc1)NC(=O)[C@H](CC(N)=O)NC(=O)[C@@H]1CCCN1C(=O)[C@H](CO)NC(=O)[C@H](CO)NC(=O)[C@H](Cc1c[nH]cn1)NC(=O)[C@H](CCCNC(=N)N)NC(=O)[C@H](CC(C)C)NC(=O)[C@H](Cc1ccccc1)NC(=O)[C@H](CC(N)=O)NC(=O)[C@H](C)NC(=O)[C@H](CC(C)C)NC(=O)[C@H](CCCNC(=N)N)NC(=O)[C@H](CCC(N)=O)NC(=O)[C@@H](NC(=O)[C@H](C)NC(=O)[C@@H]1CSSC[C@H](NC(=O)[C@@H](N)CCCCNC(=O)COCCOCCNC(=O)CCCCCCCCCCCCCCCCCCC(=O)O)C(=O)N[C@@H](CC(N)=O)C(=O)N[C@@H]([C@@H](C)O)C(=O)N[C@@H](C)C(=O)N[C@@H]([C@@H](C)O)C(=O)N1)[C@@H](C)O)C(=O)N1CCC[C@H]1C(=O)N[C@@H](CO)C(=O)N[C@@H](CO)C(=O)N[C@H](C(=O)N[C@@H](CC(N)=O)C(=O)N[C@H](C(=O)NCC(=O)N[C@@H](Cc1c[nH]cn1)C(=O)N[C@@H](CC(N)=O)C(=O)N[C@H](C(=O)N[C@@H](Cc1ccc(O)cc1)C(N)=O)[C@@H](C)O)C(C)C)[C@@H](C)O
notes: also called compound 91
As to B3, the IC50 in assay [1] was 12 nM; in assay [2], 0.119 nM. For the same molecule, the “Ratio hCT/hAmylin binding” value in assay [3] was found to be 101.
